Laboratory results: paper PMC3268748, “A novel cold-active β-D-galactosidase from the Paracoccus sp. 32d - gene cloning, purification and characterization” (Microbial Cell Factories, 2011)

Substrate: O=[N+]([O-])c1ccccc1O[C@@H]1O[C@H](CO)[C@H](O)[C@H](O)[C@H]1O
Test: purified protein
Assay type: biochemical, Paracoccus sp. 32d
Details: 20 °C, 20 mM sodium phosphate pH 7.3, apparent Km, also measured at 10 and 30 °C

B1: BgaL; Paracoccus sp. 32d β-D-galactosidase (Paracoccus sp. 32d) (protein)
chain: MRVTQKLNHGWIFAEGAADPATPLAGETVTLPHNAVDLPLSYFDETSYQRAFTYQRVIAWDDAWQGRRVQLRFDGAMADNVVWVNGVQVVAHPDGYTPFVADLTDHLRPGDNLVTVRIDGSENPAIPPFGAQIDYLTYAGIYRDVWLMVLPERHLTNARILTPDALSDAKTVVIRPEVTAPGPVRARLLDGDREIAATEGEGELTLAGLTGLSLWSTDNPQLYTVELTLPDSGDVTTHRFGFRTAEWTPQGFLLNGQPMKLRGLNRHQSWAHQGYAAGRHAQERDAEIVRHDLCCNMVRTSHYPQSTWFLDRCDEIGLLVFEEIPGWQHIGDQAWQDRSVDNVRAMITRDWNHPSIVIWGVRINESPDNHDFYVRTNALARELDPTRAIGGVRCITDSEMLEDVYTMNDFILDESELPLINRPRTALRPTEEVTGIKKPVPYLVTEYNGHMFPTKAQDPELRQMEHVIRHLEVLNAAHGDPAISGCIGWCMFDYNTHKDFGAGDRICHHGVMDIWREPKFAAHAYGSQKPPSEGIVMEPVTFWARGERNIGGVLPLIVLTNCDEVEFECAGVTRRVGPDRERFPHLPRPPVIIDHRHISAEELGQWGMSWHPGRITGWLNGEQVALREYVADPLPTTLQIAPDRDTLPADGDIDLRVMLRALDQVGNRLPFLDAGIAVTVDGPARLIGPDLRMLQGGTTGMLLRLTGDAGTIRITARHPQFPEAVATVTVG
notes: E. coli LMG194, pBAD/Myc-His A with native stop codon (no tag), ion exchange purified; homodimer 161 kDa; GH2
Km: 1180 ± 60 µM | kcat: 138 ± 2.19 s⁻¹ | kcat/Km: 117000 M⁻¹ s⁻¹
